Experimental data reported in the supplement of paper PMC9112550, “Optimization of the antimicrobial peptide Bac7 by deep mutational scanning” (BMC Biology, 2022).

Test system: Escherichia coli TOP10
Assay: shrunken log2 fold change of peptide-encoding DNA abundance (4.5 h post-induction vs induction); higher = less antimicrobial activity (less host growth inhibition)
Conditions: time post-induction: 4.5 h; library: site-saturation at positions 5, 18, 19, 20
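Also: peptides expressed intracellularly from a pBAD plasmid library in pooled LB shake-flask culture, induced with 0.3% L-arabinose, DNA abundance read by NGS, three biological replicates, DESeq2 with apeglm shrinkage.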

Sequence | shrunken log2 fold change
RRIRDRPPRLPRPRPRPETVPRP | -0.0114
RRIRGRPPRLPRPRPRPSDCPRP | 0.105
RRIRSRPPRLPRPRPRPNEKPRP | -0.0451
RRIRVRPPRLPRPRPRPRYKPRP | -0.131
RRIRQRPPRLPRPRPRPNFPPRP | -0.00205
RRIRPRPPRLPRPRPRPDPSPRP | 0.265
RRIRQRPPRLPRPRPRPPIGPRP | 2.89
RRIRGRPPRLPRPRPRPMGQPRP | 0.651
RRIRGRPPRLPRPRPRPTRCPRP | 0.527
RRIRKRPPRLPRPRPRPRKAPRP | 0.384
RRIRLRPPRLPRPRPRPCLMPRP | -0.266
RRIRVRPPRLPRPRPRPHKAPRP | -0.0103
RRIRWRPPRLPRPRPRPFFAPRP | 0.367
RRIRSRPPRLPRPRPRPTQEPRP | 0.342
RRIRCRPPRLPRPRPRPINGPRP | -0.282
RRIRDRPPRLPRPRPRPIAKPRP | 0.0483
RRIRHRPPRLPRPRPRPEFSPRP | -0.246
RRIRVRPPRLPRPRPRPLSHPRP | -0.32
RRIRQRPPRLPRPRPRPRKKPRP | -0.0181
RRIRWRPPRLPRPRPRPQNAPRP | -0.182

Sequence | shrunken log2 fold change
RRIRIRPPRLPRPRPRPHPGPRP | -0.571
RRIRERPPRLPRPRPRPGQNPRP | -0.0659
RRIRSRPPRLPRPRPRPGRRPRP | 0.263
RRIRARPPRLPRPRPRPEETPRP | -0.03
RRIRFRPPRLPRPRPRPEIWPRP | 0.217
RRIRFRPPRLPRPRPRPHCCPRP | -0.166
RRIRKRPPRLPRPRPRPAMFPRP | 0.337
RRIRLRPPRLPRPRPRPNQTPRP | -0.0464
RRIRNRPPRLPRPRPRPFDSPRP | -0.303
RRIRARPPRLPRPRPRPVIFPRP | 0.0535
RRIRTRPPRLPRPRPRPLRHPRP | 0.252
RRIRIRPPRLPRPRPRPNTHPRP | -0.677
RRIRSRPPRLPRPRPRPQDEPRP | -0.101
RRIRSRPPRLPRPRPRPPSGPRP | 0.489
RRIRERPPRLPRPRPRPINFPRP | -0.291
RRIRWRPPRLPRPRPRPYDQPRP | -0.395
RRIRFRPPRLPRPRPRPYEMPRP | -0.412
RRIRGRPPRLPRPRPRPFVEPRP | 0.236
RRIRDRPPRLPRPRPRPLASPRP | 0.171
RRIRMRPPRLPRPRPRPGQFPRP | 0.0853

Sequence | shrunken log2 fold change
RRIRDRPPRLPRPRPRPHFWPRP | -0.0278
RRIRTRPPRLPRPRPRPFQDPRP | 0.00739
RRIRERPPRLPRPRPRPHMFPRP | -0.749
RRIRVRPPRLPRPRPRPCYQPRP | -0.142
RRIRKRPPRLPRPRPRPIHIPRP | -0.39
RRIRFRPPRLPRPRPRPSRNPRP | -0.346
RRIRHRPPRLPRPRPRPRREPRP | 0.217
RRIRIRPPRLPRPRPRPRSVPRP | -0.056
RRIRKRPPRLPRPRPRPDFGPRP | 0.052
RRIRARPPRLPRPRPRPCNGPRP | -0.139
RRIRIRPPRLPRPRPRPMVYPRP | -0.136
RRIRKRPPRLPRPRPRPSNSPRP | 0.13
RRIRRRPPRLPRPRPRPNMGPRP | -0.108
RRIRHRPPRLPRPRPRPCGPPRP | -0.084
RRIRRRPPRLPRPRPRPVSKPRP | 0.24
RRIRERPPRLPRPRPRPPNNPRP | -0.186
RRIRWRPPRLPRPRPRPCPHPRP | -0.00679
RRIRIRPPRLPRPRPRPWGCPRP | -0.307
RRIRRRPPRLPRPRPRPTADPRP | 0.808
RRIRVRPPRLPRPRPRPAPAPRP | 0.626
